Residue numbers refer to the chain shown, from its start. Numbers in names are those of the source. Ends that are not written are not given here.
T1: WRFVQELASKEVC-fluorescein peptide
T1 peptide: WRFVQELASKEVC(fluorescein‑5‑maleimide)

T2: FRFVQELASKEVC-fluorescein peptide
T2 peptide: FRFVQELASKEVC(fluorescein‑5‑maleimide)

T3: YRFVQELASKEVC-fluorescein peptide
T3 peptide: YRFVQELASKEVC(fluorescein‑5‑maleimide)

T4: A. tumefaciens ClpS2 (A. tumefaciens, UniProt Q8UD95 1-103, 35S-labeled in the peptide blots only)
T4 sequence (looked up): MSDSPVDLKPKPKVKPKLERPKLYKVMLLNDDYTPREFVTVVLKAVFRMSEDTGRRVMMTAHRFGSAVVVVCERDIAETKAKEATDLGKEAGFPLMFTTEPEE

B1: A. tumefaciens ClpS2 L28A (natural protein)
chain: T4 sequence (looked up) with L28A
B2: A. tumefaciens ClpS2 R36M (natural protein)
chain: T4 sequence (looked up) with R36M

Assays:
Assay in all cases: fluorescence polarisation
[1] = target: T1, WRFVQELASKEVC-fluorescein peptide
[2] = target: T2, FRFVQELASKEVC-fluorescein peptide
[3] = target: T3, YRFVQELASKEVC-fluorescein peptide
A. tumefaciens ClpS2 = target: T4, A. tumefaciens ClpS2

| Binder | ΔΔG against parent ClpS2 [1] [kJ/mol] | ΔΔG against parent ClpS2 [2] [kJ/mol] | ΔΔG against parent ClpS2 [3] [kJ/mol] | Kd (A. tumefaciens ClpS2) [µM] |
| --- | --- | --- | --- | --- |
| B1 | 1.26 | 3.81 | -1.09 | – |
| LRFVQELASKEVC(fluorescein‑5‑maleimide) [LRFVQELASKEVC-fluorescein peptide] | – | – | – | > 800 |
| B2 | -1.26 | -0.711 | -3.1 | – |

— publication PMC4979544 (Structure (London, England : 1993), 2016)
